Tests used:
[1] = molecular target: ArbB2 Pro242Ala (Coffea arabica)
[2] = molecular target: ArbB2 Met160Ala (Coffea arabica)

loss of activity (relative conversion of ArbA2-FLWGY to product) against ArbB2 (% loss of activity) [1]: 90
loss of activity (relative conversion of ArbA2-FLWGY to product) against ArbB2 (% loss of activity) [2]: 60
Binder: GNTLKDFESKPGSFLWGYQG [ArbA2_(58–77) (ArbA2-FLWGY)]
